The values below come from PMC11320123, “Unveiling the molecular mechanisms of the type IX secretion system's response regulator: Structural and functional insights” (PNAS Nexus, 2024).

The target in one data set is T1, PorXFJ (Flavobacterium johnsoniae, UniProt A5FFU4).
T1 construct: gene Fjoh_2906
T1 sequence (A5FFU4 1-517): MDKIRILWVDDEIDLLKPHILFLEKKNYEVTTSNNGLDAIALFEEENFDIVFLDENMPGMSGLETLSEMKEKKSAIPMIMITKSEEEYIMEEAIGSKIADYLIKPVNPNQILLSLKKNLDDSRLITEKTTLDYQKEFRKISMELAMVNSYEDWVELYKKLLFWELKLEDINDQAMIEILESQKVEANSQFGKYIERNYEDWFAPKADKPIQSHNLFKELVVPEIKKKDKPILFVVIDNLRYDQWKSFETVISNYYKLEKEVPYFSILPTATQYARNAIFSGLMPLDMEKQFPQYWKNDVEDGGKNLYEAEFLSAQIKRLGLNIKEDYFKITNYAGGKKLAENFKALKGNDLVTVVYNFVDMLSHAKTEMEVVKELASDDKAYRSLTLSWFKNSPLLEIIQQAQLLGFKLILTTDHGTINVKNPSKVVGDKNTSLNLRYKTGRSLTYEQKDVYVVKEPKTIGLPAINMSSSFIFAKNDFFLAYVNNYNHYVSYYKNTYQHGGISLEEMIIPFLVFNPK
As to conditions: phosphate analogue; bound at REC phosphorylation site (Asp54) and at APS catalytic site near Thr271; primitive orthorhombic crystal form.

Data set [1] has as its target T2, THB + APS truncation mutant of PorXFJ (Flavobacterium johnsoniae, UniProt A5FFU4).
T2 construct: gene Fjoh_2906; REC domain truncated, residues 126–end; ~46 kDa; E. coli BL21
T2 sequence (A5FFU4 126-517): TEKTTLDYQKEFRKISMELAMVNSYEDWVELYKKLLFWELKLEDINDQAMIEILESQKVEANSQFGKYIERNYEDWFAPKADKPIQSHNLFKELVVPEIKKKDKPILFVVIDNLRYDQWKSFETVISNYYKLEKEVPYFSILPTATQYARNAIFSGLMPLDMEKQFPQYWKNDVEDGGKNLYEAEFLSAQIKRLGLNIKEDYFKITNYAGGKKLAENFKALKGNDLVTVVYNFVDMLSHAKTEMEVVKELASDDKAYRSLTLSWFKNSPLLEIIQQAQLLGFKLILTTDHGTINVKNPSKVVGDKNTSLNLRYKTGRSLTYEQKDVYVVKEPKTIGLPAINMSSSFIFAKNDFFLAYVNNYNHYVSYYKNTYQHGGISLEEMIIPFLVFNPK
Description: phosphodiesterase assay. The following applies: zinc-dependent. The format is biochemical.

Data set [2] concerns the molecule itself. The experiment in a line: SEC; protein incubated with zinc only (no AcP); Superdex200inc 10/300 GL for wild type and point mutants, Superdex75inc 10/300 GL for truncations; monomer to dimer. In general terms: In gel filtration, larger molecules generally elute earlier.
Data set [3] concerns the molecule itself. The experiment in a line: SEC; protein incubated with acetyl phosphate (AcP) in the presence of magnesium; Superdex200inc 10/300 GL for wild type and point mutants, Superdex75inc 10/300 GL for truncations; monomer to dimer.
Data set [4] deals with the molecule itself. The description is as above. This is another data set of the same source.
Data set [5] concerns the molecule itself. Description: SEC; protein incubated with zinc only (no AcP); Superdex200inc 10/300 GL for wild type and point mutants, Superdex75inc 10/300 GL for truncations; monomer to dimer. This is another data set of the same source.

Take `[F][Be-]([F])[F]` [BeF3]: the X-ray co-crystal structure result on PorXFJ is given as “we have co-crystallized PorXFJ with the phosphate analog, BeF3”.
As for `O=[N+]([O-])c1ccc(OP(=O)(O)Oc2ccc([N+](=O)[O-])cc2)cc1` [bis(p-nitrophenyl) phosphate], the phosphodiesterase assay result in data set [1] was “full-length PorXFJ and the THB + APS truncation mutant”.

B1: PorXFJ REC + THB domains (1–208) (domain or fragment, UniProt A5FFU4 1-208, looked up)
chain: MDKIRILWVDDEIDLLKPHILFLEKKNYEVTTSNNGLDAIALFEEENFDIVFLDENMPGMSGLETLSEMKEKKSAIPMIMITKSEEEYIMEEAIGSKIADYLIKPVNPNQILLSLKKNLDDSRLITEKTTLDYQKEFRKISMELAMVNSYEDWVELYKKLLFWELKLEDINDQAMIEILESQKVEANSQFGKYIERNYEDWFAPKADK
notes: also called REC + THB domains truncated variant; source: E. coli BL21, purified (Ni-NTA, thrombin cleavage, SEC); not shown: 10x-His, N-terminal, cleaved
In the case of B1, the binding result in data set [2] is given as “binds”.

B2: PorXFJ REC domain (1–121) (domain or fragment, UniProt A5FFU4 1-121, looked up)
chain: MDKIRILWVDDEIDLLKPHILFLEKKNYEVTTSNNGLDAIALFEEENFDIVFLDENMPGMSGLETLSEMKEKKSAIPMIMITKSEEEYIMEEAIGSKIADYLIKPVNPNQILLSLKKNLDD
notes: also called REC domain only truncation variant; source: E. coli BL21, purified (Ni-NTA, thrombin cleavage, SEC); not shown: 10x-His, N-terminal, cleaved
Regarding B2, the binding result in data set [3] is reported as “binds”.

B3: PorX from Flavobacterium johnsoniae (PorXFJ), wild type, full length (natural protein, UniProt A5FFU4 1-517, looked up)
chain: MDKIRILWVDDEIDLLKPHILFLEKKNYEVTTSNNGLDAIALFEEENFDIVFLDENMPGMSGLETLSEMKEKKSAIPMIMITKSEEEYIMEEAIGSKIADYLIKPVNPNQILLSLKKNLDDSRLITEKTTLDYQKEFRKISMELAMVNSYEDWVELYKKLLFWELKLEDINDQAMIEILESQKVEANSQFGKYIERNYEDWFAPKADKPIQSHNLFKELVVPEIKKKDKPILFVVIDNLRYDQWKSFETVISNYYKLEKEVPYFSILPTATQYARNAIFSGLMPLDMEKQFPQYWKNDVEDGGKNLYEAEFLSAQIKRLGLNIKEDYFKITNYAGGKKLAENFKALKGNDLVTVVYNFVDMLSHAKTEMEVVKELASDDKAYRSLTLSWFKNSPLLEIIQQAQLLGFKLILTTDHGTINVKNPSKVVGDKNTSLNLRYKTGRSLTYEQKDVYVVKEPKTIGLPAINMSSSFIFAKNDFFLAYVNNYNHYVSYYKNTYQHGGISLEEMIIPFLVFNPK
notes: also called WT; Fjoh_2906; source: E. coli BL21, purified (Ni-NTA, thrombin cleavage, SEC); not shown: 10x-His, N-terminal, cleaved
Take B3: in data set [4], the binding result was “binds”.

B4: PorXFJ T271V (APS domain catalytically inactive mutant) (natural protein, UniProt A5FFU4 1-517, looked up)
chain: MDKIRILWVDDEIDLLKPHILFLEKKNYEVTTSNNGLDAIALFEEENFDIVFLDENMPGMSGLETLSEMKEKKSAIPMIMITKSEEEYIMEEAIGSKIADYLIKPVNPNQILLSLKKNLDDSRLITEKTTLDYQKEFRKISMELAMVNSYEDWVELYKKLLFWELKLEDINDQAMIEILESQKVEANSQFGKYIERNYEDWFAPKADKPIQSHNLFKELVVPEIKKKDKPILFVVIDNLRYDQWKSFETVISNYYKLEKEVPYFSILPTAVQYARNAIFSGLMPLDMEKQFPQYWKNDVEDGGKNLYEAEFLSAQIKRLGLNIKEDYFKITNYAGGKKLAENFKALKGNDLVTVVYNFVDMLSHAKTEMEVVKELASDDKAYRSLTLSWFKNSPLLEIIQQAQLLGFKLILTTDHGTINVKNPSKVVGDKNTSLNLRYKTGRSLTYEQKDVYVVKEPKTIGLPAINMSSSFIFAKNDFFLAYVNNYNHYVSYYKNTYQHGGISLEEMIIPFLVFNPK
notes: source: E. coli BL21, purified (Ni-NTA, thrombin cleavage, SEC); not shown: 10x-His, N-terminal, cleaved
Regarding B4, in data set [3], the binding result was “binds”.

B5: PorXFJ S384A/S388E double mutant (APS domain dimerization interface) (natural protein, UniProt A5FFU4 1-517, looked up)
chain: MDKIRILWVDDEIDLLKPHILFLEKKNYEVTTSNNGLDAIALFEEENFDIVFLDENMPGMSGLETLSEMKEKKSAIPMIMITKSEEEYIMEEAIGSKIADYLIKPVNPNQILLSLKKNLDDSRLITEKTTLDYQKEFRKISMELAMVNSYEDWVELYKKLLFWELKLEDINDQAMIEILESQKVEANSQFGKYIERNYEDWFAPKADKPIQSHNLFKELVVPEIKKKDKPILFVVIDNLRYDQWKSFETVISNYYKLEKEVPYFSILPTATQYARNAIFSGLMPLDMEKQFPQYWKNDVEDGGKNLYEAEFLSAQIKRLGLNIKEDYFKITNYAGGKKLAENFKALKGNDLVTVVYNFVDMLSHAKTEMEVVKELASDDKAYRALTLEWFKNSPLLEIIQQAQLLGFKLILTTDHGTINVKNPSKVVGDKNTSLNLRYKTGRSLTYEQKDVYVVKEPKTIGLPAINMSSSFIFAKNDFFLAYVNNYNHYVSYYKNTYQHGGISLEEMIIPFLVFNPK
notes: also called S348A/S388E (as printed once); source: E. coli BL21, purified (Ni-NTA, thrombin cleavage, SEC); not shown: 10x-His, N-terminal, cleaved
In the case of B5, the binding result in data set [3] is recorded as “binds”.

B6: PorXFJ D54A (REC domain phosphorylation-null mutant) (natural protein, UniProt A5FFU4 1-517, looked up)
chain: MDKIRILWVDDEIDLLKPHILFLEKKNYEVTTSNNGLDAIALFEEENFDIVFLAENMPGMSGLETLSEMKEKKSAIPMIMITKSEEEYIMEEAIGSKIADYLIKPVNPNQILLSLKKNLDDSRLITEKTTLDYQKEFRKISMELAMVNSYEDWVELYKKLLFWELKLEDINDQAMIEILESQKVEANSQFGKYIERNYEDWFAPKADKPIQSHNLFKELVVPEIKKKDKPILFVVIDNLRYDQWKSFETVISNYYKLEKEVPYFSILPTATQYARNAIFSGLMPLDMEKQFPQYWKNDVEDGGKNLYEAEFLSAQIKRLGLNIKEDYFKITNYAGGKKLAENFKALKGNDLVTVVYNFVDMLSHAKTEMEVVKELASDDKAYRSLTLSWFKNSPLLEIIQQAQLLGFKLILTTDHGTINVKNPSKVVGDKNTSLNLRYKTGRSLTYEQKDVYVVKEPKTIGLPAINMSSSFIFAKNDFFLAYVNNYNHYVSYYKNTYQHGGISLEEMIIPFLVFNPK
notes: as for B4
For the molecule B6, the binding result in data set [5] is recorded as “binds”.

B7: PorXFJ L113E (REC domain dimerization interface mutant) (natural protein, UniProt A5FFU4 1-517, looked up)
chain: MDKIRILWVDDEIDLLKPHILFLEKKNYEVTTSNNGLDAIALFEEENFDIVFLDENMPGMSGLETLSEMKEKKSAIPMIMITKSEEEYIMEEAIGSKIADYLIKPVNPNQILESLKKNLDDSRLITEKTTLDYQKEFRKISMELAMVNSYEDWVELYKKLLFWELKLEDINDQAMIEILESQKVEANSQFGKYIERNYEDWFAPKADKPIQSHNLFKELVVPEIKKKDKPILFVVIDNLRYDQWKSFETVISNYYKLEKEVPYFSILPTATQYARNAIFSGLMPLDMEKQFPQYWKNDVEDGGKNLYEAEFLSAQIKRLGLNIKEDYFKITNYAGGKKLAENFKALKGNDLVTVVYNFVDMLSHAKTEMEVVKELASDDKAYRSLTLSWFKNSPLLEIIQQAQLLGFKLILTTDHGTINVKNPSKVVGDKNTSLNLRYKTGRSLTYEQKDVYVVKEPKTIGLPAINMSSSFIFAKNDFFLAYVNNYNHYVSYYKNTYQHGGISLEEMIIPFLVFNPK
notes: as for B4
As for B7, in data set [5], the binding result is given as “binds”.

B8: PorXFJ D360A/H364A double mutant (zinc coordination, Zn1 site) (natural protein, UniProt A5FFU4 1-517, looked up)
chain: MDKIRILWVDDEIDLLKPHILFLEKKNYEVTTSNNGLDAIALFEEENFDIVFLDENMPGMSGLETLSEMKEKKSAIPMIMITKSEEEYIMEEAIGSKIADYLIKPVNPNQILLSLKKNLDDSRLITEKTTLDYQKEFRKISMELAMVNSYEDWVELYKKLLFWELKLEDINDQAMIEILESQKVEANSQFGKYIERNYEDWFAPKADKPIQSHNLFKELVVPEIKKKDKPILFVVIDNLRYDQWKSFETVISNYYKLEKEVPYFSILPTATQYARNAIFSGLMPLDMEKQFPQYWKNDVEDGGKNLYEAEFLSAQIKRLGLNIKEDYFKITNYAGGKKLAENFKALKGNDLVTVVYNFVAMLSAAKTEMEVVKELASDDKAYRSLTLSWFKNSPLLEIIQQAQLLGFKLILTTDHGTINVKNPSKVVGDKNTSLNLRYKTGRSLTYEQKDVYVVKEPKTIGLPAINMSSSFIFAKNDFFLAYVNNYNHYVSYYKNTYQHGGISLEEMIIPFLVFNPK
notes: as for B4
Turning to B8, the binding result in data set [3] is on record as “binds”.

B9: PorXFJ APS + THB domains (126–end) (domain or fragment, UniProt A5FFU4 126-517, looked up)
chain: TEKTTLDYQKEFRKISMELAMVNSYEDWVELYKKLLFWELKLEDINDQAMIEILESQKVEANSQFGKYIERNYEDWFAPKADKPIQSHNLFKELVVPEIKKKDKPILFVVIDNLRYDQWKSFETVISNYYKLEKEVPYFSILPTATQYARNAIFSGLMPLDMEKQFPQYWKNDVEDGGKNLYEAEFLSAQIKRLGLNIKEDYFKITNYAGGKKLAENFKALKGNDLVTVVYNFVDMLSHAKTEMEVVKELASDDKAYRSLTLSWFKNSPLLEIIQQAQLLGFKLILTTDHGTINVKNPSKVVGDKNTSLNLRYKTGRSLTYEQKDVYVVKEPKTIGLPAINMSSSFIFAKNDFFLAYVNNYNHYVSYYKNTYQHGGISLEEMIIPFLVFNPK
notes: also called THB + APS truncation mutant; THB + APS domains; source: E. coli BL21, purified (Ni-NTA, thrombin cleavage, SEC); not shown: 10x-His, N-terminal, cleaved
Regarding B9, the binding result in data set [2] is on record as “binds”.
